The record followed here is patent US20160031952A1.

Experiment in all cases: cell-based or functional assay
Experiment [1] has as its target transthyretin (TTR), pre-incubated at pH 4.5 for 24 hrs, toxic oligomer-containing solution (UniProt P02766).
The target in experiment [2] is β-amyloid peptide 1-42 (Aβ), pre-aggregated for 6 hrs, toxic oligomer-containing solution (UniProt P05067).
Experiment [3] concerns the target β-amyloid peptide 1-42 (Aβ), fresh (0 h), monomeric (UniProt P05067).

β-amyloid peptide 1-42 (Aβ), pre-aggregated for 6 hrs, toxic oligomer-containing solution, sequence (P05067 672-713 limits assumed): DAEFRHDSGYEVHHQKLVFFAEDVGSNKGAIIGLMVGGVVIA
β-amyloid peptide 1-42 (Aβ), fresh (0 h), monomeric, sequence (P05067 672-713 limits assumed): as above

In the case of “α1 (ldas90, peptide #1 of FIG. 5), Ac-RGEmNlSwMNEYSGWtMnLkMGR-NH2 (designed binder)”, in experiment [1], the inhibition of the remaining TTR aggregation after addition to 24-hour pre-incubated, toxic TTR (Congo red) was determined as 81% and the percentage inhibition of TTR aggregation (Congo red binding, 48 h, 37° C., pH 4.5; peptide co-incubated 20:1 from the start) is 72%. Moreover, in experiment [2], the inhibition of Aβ fibril formation (ThT fluorescence, 22 hours, 37° C.; peptide co-incubated 10:1 from the start) turned out to be 87% and the inhibition of aggregation after addition to pre-aggregated (6 hrs), toxic Aβ (ThT) stood at 97%.

As for “β (β-sheet control design: Trpzip 3 peptide with Trp to Leu substitutions) (designed binder)”, the inhibition of Aβ fibrillization (ThT fluorescence; co-incubated 10:1) in experiment [3] is 62%.
